Molecular target: T1, PLD2^wt (Homo sapiens, UniProt O14939 1-933)
T1 construct: Ectopically expressed in COS7 or HEK293 cells from a mammalian expression vector; used as cell lysate; also called phospholipase D2
Test: GST pull-down with PLD2-expressing cell lysates

T1 sequence (O14939 whole entry R172C/T577I): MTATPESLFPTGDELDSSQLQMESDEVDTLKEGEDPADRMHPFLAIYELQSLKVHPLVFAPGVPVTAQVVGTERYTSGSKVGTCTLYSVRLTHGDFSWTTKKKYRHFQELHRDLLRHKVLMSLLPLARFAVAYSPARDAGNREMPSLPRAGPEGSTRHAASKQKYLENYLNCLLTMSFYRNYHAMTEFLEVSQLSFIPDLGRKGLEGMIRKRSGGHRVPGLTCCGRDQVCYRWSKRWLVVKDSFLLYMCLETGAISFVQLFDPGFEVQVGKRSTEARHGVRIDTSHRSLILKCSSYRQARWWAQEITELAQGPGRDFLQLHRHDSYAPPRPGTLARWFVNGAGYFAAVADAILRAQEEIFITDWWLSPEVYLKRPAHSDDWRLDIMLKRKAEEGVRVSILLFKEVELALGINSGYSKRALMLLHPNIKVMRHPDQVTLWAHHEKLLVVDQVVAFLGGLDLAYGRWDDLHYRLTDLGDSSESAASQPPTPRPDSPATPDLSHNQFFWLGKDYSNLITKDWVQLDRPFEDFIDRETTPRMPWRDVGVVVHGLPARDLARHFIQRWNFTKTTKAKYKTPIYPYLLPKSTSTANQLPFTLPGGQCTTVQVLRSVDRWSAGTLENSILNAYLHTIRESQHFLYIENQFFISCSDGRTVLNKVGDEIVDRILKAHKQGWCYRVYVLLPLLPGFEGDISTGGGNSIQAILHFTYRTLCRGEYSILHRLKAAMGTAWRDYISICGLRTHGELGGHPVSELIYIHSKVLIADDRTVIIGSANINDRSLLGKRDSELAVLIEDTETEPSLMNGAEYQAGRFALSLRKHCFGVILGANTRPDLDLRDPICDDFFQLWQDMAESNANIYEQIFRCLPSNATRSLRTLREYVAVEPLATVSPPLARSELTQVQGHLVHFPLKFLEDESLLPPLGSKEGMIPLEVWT

B1: GST-R-Ras (other, UniProt P10301 1-218, looked up)
chain: MSSGAASGTGRGRPRGGGPGPGDPPPSETHKLVVVGGGGVGKSALTIQFIQSYFVSDYDPTIEDSYTKICSVDGIPARLDILDTAGQEEFGAMREQYMRAGHGFLLVFAINDRQSFNEVGKLFTQILRVKDRDDFPVVLVGNKADLESQRQVPRSEASAFGASHHVAYFEASAKLRLNVDEAFEQLVRAVRKYQEQELPPSPPSAPRKKGGGCPCVLL
notes: Expressed in E. coli, on glutathione-Sepharose beads; also called GST-Ras; not shown: GST tag
binding result: no binding

— US20090304667A1 (POSTECH ACADEMY INDUSTRY, published 2009)
